From patent US20220332804A1 (CSL INNOVATION, published 2022)

Experiments:
Experiment in all cases: SPR, antibody captured, C2 as analyte;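 note: biacore at 37 °C, anti-C2 mAbs held by immobilised goat anti-human IgG, C2 alanine or serine mutants injected, double-referenced sensorgrams fitted to a 1:1 kinetic or steady-state model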
human C2 D441A = target: T1, human C2 D441A (human, UniProt P06681 21-752)
T1 sequence: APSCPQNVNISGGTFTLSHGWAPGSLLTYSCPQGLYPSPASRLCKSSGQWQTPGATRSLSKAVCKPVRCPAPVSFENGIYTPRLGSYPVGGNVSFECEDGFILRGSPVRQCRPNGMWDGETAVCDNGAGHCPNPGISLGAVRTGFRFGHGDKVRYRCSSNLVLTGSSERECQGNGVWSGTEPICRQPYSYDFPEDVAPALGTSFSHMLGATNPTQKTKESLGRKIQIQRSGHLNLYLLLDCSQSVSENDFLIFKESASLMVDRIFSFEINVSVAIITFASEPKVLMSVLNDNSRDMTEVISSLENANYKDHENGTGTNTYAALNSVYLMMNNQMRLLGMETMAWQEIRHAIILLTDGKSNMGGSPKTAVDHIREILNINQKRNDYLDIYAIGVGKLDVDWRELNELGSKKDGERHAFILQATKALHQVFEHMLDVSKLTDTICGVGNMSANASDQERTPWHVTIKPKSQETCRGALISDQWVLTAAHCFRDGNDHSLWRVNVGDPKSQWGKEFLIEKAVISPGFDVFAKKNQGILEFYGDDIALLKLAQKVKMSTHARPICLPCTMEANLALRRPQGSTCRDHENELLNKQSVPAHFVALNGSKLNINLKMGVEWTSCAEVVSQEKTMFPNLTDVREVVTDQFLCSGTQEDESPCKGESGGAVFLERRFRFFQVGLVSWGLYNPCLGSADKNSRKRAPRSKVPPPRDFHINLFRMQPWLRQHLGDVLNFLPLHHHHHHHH

human C2 D454A = target: T2, human C2 D454A (human, UniProt P06681 21-752)
T2 sequence: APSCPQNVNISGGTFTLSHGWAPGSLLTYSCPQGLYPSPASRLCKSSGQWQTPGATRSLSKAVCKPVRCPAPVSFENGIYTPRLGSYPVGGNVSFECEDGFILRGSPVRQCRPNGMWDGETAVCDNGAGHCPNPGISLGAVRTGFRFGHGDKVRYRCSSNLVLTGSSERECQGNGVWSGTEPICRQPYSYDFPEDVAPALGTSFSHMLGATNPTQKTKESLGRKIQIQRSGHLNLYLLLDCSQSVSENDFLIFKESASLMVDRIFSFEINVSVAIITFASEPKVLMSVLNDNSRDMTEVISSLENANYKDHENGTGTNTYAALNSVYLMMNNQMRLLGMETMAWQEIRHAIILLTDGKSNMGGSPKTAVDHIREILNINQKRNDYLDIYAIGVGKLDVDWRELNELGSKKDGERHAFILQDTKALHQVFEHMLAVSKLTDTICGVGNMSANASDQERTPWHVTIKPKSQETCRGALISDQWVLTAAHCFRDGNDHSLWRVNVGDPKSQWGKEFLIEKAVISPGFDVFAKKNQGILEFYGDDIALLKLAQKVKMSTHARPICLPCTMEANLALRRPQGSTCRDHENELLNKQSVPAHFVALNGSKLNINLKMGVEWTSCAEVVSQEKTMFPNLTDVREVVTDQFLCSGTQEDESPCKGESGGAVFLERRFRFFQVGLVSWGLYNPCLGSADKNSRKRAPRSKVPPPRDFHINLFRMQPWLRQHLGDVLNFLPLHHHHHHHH

human C2 L620A = target: T3, human C2 L620A (human, UniProt P06681 21-752)
T3 sequence: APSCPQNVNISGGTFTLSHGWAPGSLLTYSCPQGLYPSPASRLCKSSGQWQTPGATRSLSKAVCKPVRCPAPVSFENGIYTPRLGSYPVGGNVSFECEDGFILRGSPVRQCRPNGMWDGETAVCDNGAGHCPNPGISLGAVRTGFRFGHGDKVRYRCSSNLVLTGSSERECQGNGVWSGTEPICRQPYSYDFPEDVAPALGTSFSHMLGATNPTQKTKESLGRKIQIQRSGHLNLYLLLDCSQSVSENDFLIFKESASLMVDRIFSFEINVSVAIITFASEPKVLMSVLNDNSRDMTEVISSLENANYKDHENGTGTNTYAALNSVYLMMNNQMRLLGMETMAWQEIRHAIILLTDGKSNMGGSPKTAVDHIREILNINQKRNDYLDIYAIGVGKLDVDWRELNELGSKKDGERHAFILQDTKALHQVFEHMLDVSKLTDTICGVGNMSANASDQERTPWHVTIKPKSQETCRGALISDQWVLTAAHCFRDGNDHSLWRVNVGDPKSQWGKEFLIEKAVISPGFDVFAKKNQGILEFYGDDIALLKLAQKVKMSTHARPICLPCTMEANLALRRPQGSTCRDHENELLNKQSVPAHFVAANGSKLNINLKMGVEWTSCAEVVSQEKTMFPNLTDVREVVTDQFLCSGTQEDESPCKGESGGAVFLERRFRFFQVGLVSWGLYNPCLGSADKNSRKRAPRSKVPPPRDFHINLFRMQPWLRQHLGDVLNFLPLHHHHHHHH

human C2 G677A = target: T4, human C2 G677A (human, UniProt P06681 21-752)
T4 sequence: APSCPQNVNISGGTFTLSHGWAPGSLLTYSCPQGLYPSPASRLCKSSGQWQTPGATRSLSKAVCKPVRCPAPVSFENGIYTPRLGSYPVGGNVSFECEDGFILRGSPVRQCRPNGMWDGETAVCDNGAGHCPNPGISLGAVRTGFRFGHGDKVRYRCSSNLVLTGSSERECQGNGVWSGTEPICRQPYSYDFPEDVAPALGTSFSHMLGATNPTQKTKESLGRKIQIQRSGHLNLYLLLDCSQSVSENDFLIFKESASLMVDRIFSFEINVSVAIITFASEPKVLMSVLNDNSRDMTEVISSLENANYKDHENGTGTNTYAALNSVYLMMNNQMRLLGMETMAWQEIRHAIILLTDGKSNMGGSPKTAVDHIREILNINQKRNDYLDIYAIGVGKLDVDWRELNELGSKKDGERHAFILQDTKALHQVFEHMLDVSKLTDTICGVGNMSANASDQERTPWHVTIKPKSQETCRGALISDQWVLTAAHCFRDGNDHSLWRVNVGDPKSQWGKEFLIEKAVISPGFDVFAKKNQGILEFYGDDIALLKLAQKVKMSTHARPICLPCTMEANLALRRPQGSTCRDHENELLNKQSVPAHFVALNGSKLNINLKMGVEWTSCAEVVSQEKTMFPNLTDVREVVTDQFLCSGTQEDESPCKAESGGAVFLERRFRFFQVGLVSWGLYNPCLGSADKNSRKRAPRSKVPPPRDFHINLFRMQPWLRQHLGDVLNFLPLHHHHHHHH

B1: RF16-242 (antibody, human IgG4 S228P, lambda, V domains shown)
VH: EVQLLQSGAEVKKPGESLKISCKGSGYSFTSYWIGWVRQMPGKGLEWMGIIYPGDSDTRYSPSFQGQVTISADKSISTAYLQWSSLKASDTAMYYCARRGHYGDYFDYWGQGTLVTVSS
VL: SYELTQPPSVSVSPGQTARITCSGDALPKKYAYWYHQKSGQAPVLVIYEDRRRPSEIPERFSGSSSGTMATLTITGAQVEDEGVYFCYSRDRAGNQRVFGGGTQLTVLG
notes: pH-dependent anti-C2 antibody from a phage display library
With B1 the Kd (human C2 D441A) was 114 nM, the Kd (human C2 D454A) was 35.4 nM and the Kd (human C2 L620A) was 8 nM. It also gave a Kd (human C2 G677A) of 6.8 nM.
